Article PMC4508888

Key:
Assay in all cases: co-IP
EGFP-Myo1b (rat) = EGFP-Myo1b (rat) (UniProt Q05096)
EGFP-Myo1b motor (rat) = target: EGFP-Myo1b motor (rat)
EGFP-Myo1b-Tail (rat) = target: EGFP-Myo1b-Tail (rat)
Flag-EphB2-KD = Flag-EphB2-KD (UniProt P54763)

Chain of Flag-EphB2 (P54763 19-986): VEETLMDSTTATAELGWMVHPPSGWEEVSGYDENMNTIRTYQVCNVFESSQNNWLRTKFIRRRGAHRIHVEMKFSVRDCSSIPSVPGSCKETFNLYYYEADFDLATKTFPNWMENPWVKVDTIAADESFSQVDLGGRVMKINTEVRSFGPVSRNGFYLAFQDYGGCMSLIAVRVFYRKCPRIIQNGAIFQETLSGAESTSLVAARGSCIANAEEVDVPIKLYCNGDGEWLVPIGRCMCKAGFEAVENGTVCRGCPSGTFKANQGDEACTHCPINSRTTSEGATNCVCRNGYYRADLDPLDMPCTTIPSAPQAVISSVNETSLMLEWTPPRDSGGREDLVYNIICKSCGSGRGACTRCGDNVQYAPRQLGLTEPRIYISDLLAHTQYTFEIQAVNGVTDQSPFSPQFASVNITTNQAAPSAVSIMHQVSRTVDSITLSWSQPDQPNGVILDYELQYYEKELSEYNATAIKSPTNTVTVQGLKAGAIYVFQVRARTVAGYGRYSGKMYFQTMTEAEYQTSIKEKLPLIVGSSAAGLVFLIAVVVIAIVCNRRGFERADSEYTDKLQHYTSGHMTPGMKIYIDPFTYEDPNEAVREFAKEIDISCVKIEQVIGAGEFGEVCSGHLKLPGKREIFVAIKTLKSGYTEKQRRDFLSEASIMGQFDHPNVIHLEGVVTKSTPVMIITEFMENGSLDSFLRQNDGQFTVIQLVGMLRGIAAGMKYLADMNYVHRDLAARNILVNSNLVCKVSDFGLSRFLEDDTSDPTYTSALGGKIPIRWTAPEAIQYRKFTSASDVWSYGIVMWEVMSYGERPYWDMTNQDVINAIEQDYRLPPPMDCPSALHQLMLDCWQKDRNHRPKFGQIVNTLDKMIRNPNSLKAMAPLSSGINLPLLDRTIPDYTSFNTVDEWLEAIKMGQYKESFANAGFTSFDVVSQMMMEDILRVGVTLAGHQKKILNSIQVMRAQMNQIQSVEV

Row | percent of Flag-EphB2 co-precipitated with EGFP-Myo1b after genistein treatment (EGFP-Myo1b (rat)) [%] | percent of Flag-EphB2 pulled down against EGFP-Myo1b (EGFP-Myo1b motor (rat)) [%] | fold of Flag-EphB2 pulled down against EGFP-Myo1b (EGFP-Myo1b-Tail (rat)) [fold] | percent of EGFP-Myo1b co-precipitated against Flag-EphB2 (Flag-EphB2-KD) [%] | Molecule
1 | 29 | 50 | > 2 | – | Flag-EphB2 (from UniProt P54763 19-986) (receptor)
2 | – | – | – | 16 | EGFP-Myo1b (natural protein) MAKKEVKSSLLDNMIGVGDTVLLEPLNEETFIDNLKKRFDHNEIYTYIGSVVISVNPYRSLPIYSPEKVEDYRNRNFYELSPHIFALSDEAYRSLRDQDKDQCILITGESGAGKTEASKLVMSYVAAVCGKGAEVNQVKEQLLQSTPVLEAFGNAKTVRNDNSSRFGKYMDIEFDFKGDPLGGVISNYLLEKSRVVKQPRGERNFHVFYQLLSGASEELLHKLKLERDFSRYNYLSLDSAKVNGVDDAANFRTVRNAMQIVGFSDPEAESVLEVVAAVLKLGNIEFKPESRMNGLDESKIKDKNELKEICELTSIDQVVLERAFSFRTVEAKQEKVSTTLNVAQAYYARDALAKNLYSRLFSWLVNRINESIKAQTKVRKKVMGVLDIYGFEIFEDNSFEQFIINYCNEKLQQIFIELTLKEEQEEYIREDIEWTHIDYFNNAIICDLIENNTNGILAMLDEECLRPGTVTDETFLEKLNQVCATHQHFESRMSKCSRFLNDTTLPHSCFRIQHYAGKVLYQVEGFVDKNNDLLYRDLSQAMWKAGHALIKSLFPEGNPAKVNLKRPPTAGSQFKASVATLMKNLQTKNPNYIRCIKPNDKKAAHIFSESLVCHQIRYLGLLENVRVRRAGYAFRQAYEPCLERYKMLCKQTWPHWKGPARSGVEVLFNELEIPVEEYSFGRSKIFIRNPRTLFQLEDLRKQRLEDLATLIQKIYRGWKCRTHFLLMKRSQVVIAAWYRRYAQQKRYQQIKSSALVIQSYIRGWKARKILRELKHQKRCKEAATTIAAYWHGTQARKERRRLKDEARNKHAIAVIWAFWLGSKARRELKRLKEEARRKHAVAVIWAYWLGLKVRREYRKFFRANAGKKIYEFTLQRIVQKYLLEMKNKMPSLSPIDKNWPSRPYLFLDSTHKELKRIFHLWRCKKYRDQFTDQQKLIYEEKLEASELFKDKKALYPSSVGQPFQGAYLEINKNPKYKKLKDAIEEKIIIAEVVNKINRANGKSTSRIFLLTNNNLLLADQKSGQIKSEVPLVDVTKVSMSSQNDGFFAVHLKEGSEAASKGDFLFSSDHLIEMATKLYRTTLSQTKQKLNIEISDEFLVQFRQDKVCVKFIQGNQKNGSVPTCKRKNNRLLEVAVP
